These results are taken from US20160032004A1 (published 2016).

Test [1] concerns the target T1, CD74 (invariant chain, Ii) (human, UniProt P04233 1-296).
T1 construct: whole, on cells; Endogenous antigen of human cancer cell lines; measured on the surface only or on surface plus cytoplasm (permeabilized cells)
T1 sequence (looked up): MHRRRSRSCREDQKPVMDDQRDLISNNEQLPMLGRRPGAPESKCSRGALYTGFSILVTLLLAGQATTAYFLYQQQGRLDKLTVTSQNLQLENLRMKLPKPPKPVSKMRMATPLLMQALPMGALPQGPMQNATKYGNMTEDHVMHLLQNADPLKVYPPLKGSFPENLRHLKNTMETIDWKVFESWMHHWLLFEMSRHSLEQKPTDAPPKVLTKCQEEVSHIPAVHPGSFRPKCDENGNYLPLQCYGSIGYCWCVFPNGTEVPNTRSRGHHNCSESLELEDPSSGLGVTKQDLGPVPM
Nature of the test: flow cytometry, permeabilized Capan-1 cells. Background: In flow cytometry, cells or beads pass a laser one at a time.

The target in test [2] is T1, CD74 (invariant chain, Ii). Nature of the test: flow cytometry, membrane-only, HuH-7 cells.
Test [3] deals with T1, CD74 (invariant chain, Ii). Nature of the test: flow cytometry, membrane-only, NCI-N87 cells.
Test [4] addresses T1, CD74 (invariant chain, Ii). Nature of the test: flow cytometry, permeabilized Hep-G2 cells.
In test [5] the target is T1, CD74 (invariant chain, Ii). Put plainly: flow cytometry, permeabilized A-375 cells.
In test [6] the target is T1, CD74 (invariant chain, Ii). Put plainly: flow cytometry, permeabilized Raji cells.
Test [7] deals with T1, CD74 (invariant chain, Ii). Put plainly: flow cytometry, permeabilized HuH-7 cells.
Test [8] addresses T1, CD74 (invariant chain, Ii). Put plainly: cell binding assay on antigen-positive cells.
Test [9] addresses T1, CD74 (invariant chain, Ii). Put plainly: flow cytometry, membrane-only, Hep-G2 cells.
Test [10] addresses T1, CD74 (invariant chain, Ii). Nature of the test: flow cytometry, membrane-only, A-375 cells.
Test [11] concerns the target T1, CD74 (invariant chain, Ii). Nature of the test: flow cytometry, permeabilized NCI-N87 cells.
The target of test [12] is T1, CD74 (invariant chain, Ii). Nature of the test: flow cytometry, permeabilized Hs746T cells.
Test [13] addresses T1, CD74 (invariant chain, Ii). Nature of the test: flow cytometry, membrane-only, Raji cells.
Test [14] has as its target T1, CD74 (invariant chain, Ii). Put plainly: flow cytometry, membrane-only, Hs746T cells.
Test [15] deals with T1, CD74 (invariant chain, Ii). Nature of the test: flow cytometry, membrane-only, Capan-1 cells.

B1: Milatuzumab (humanized anti-CD74 antibody, hLL1) (antibody, V domains shown)
VH: QVQLQQSGSELKKPGASVKVSCKASGYTFTNYGVNWIKQAPGQGLQWMGWINPNTGEPTFDDDFKGRFAFSLDTSVSTAYLQISSLKADDTAVYFCSRSRGKNEAWFAYWGQGTLVTVSS
VL: DIQLTQSPLSLPVTLGQPASISCRSSQSLVHRNGNTYLHWFQQRPGQSPRLLIYTVSNRFSGVPDRFSGSGSGTDFTLKISRVEAEDVGVYFCSQSSHVPPTFGAGTRLEIK
The Kd is the free concentration of one partner at which half of the binding sites on the other are occupied at equilibrium, for simple one-to-one binding. Read a high Kd as weaker binding. As for B1, the “MFI Ratio hLL1:bkgd (surface and cytoplasmic)” value was determined as 49.6 in test [1]; 31.2 in test [4]; 30.8 in test [5]; 28.6 in [6]; 28.5 in [7]; 36.7 in [11]. Further, in test [12], the “MFI Ratio hLL1:bkgd (surface and cytoplasmic)” value was determined as 28.8. Further, the “MFI Ratio hLL1:bkgd (surface)” value in [2] turned out to be 1.6; in test [3] it was 1.3; in [9], 1.5; in [10] it was 5.3; in test [13], 19.6; in test [14] it was 2.1. Also, the “MFI Ratio hLL1:bkgd (surface)” value in test [15] came out at 1.8. The same molecule displayed a Kd in test [8] of 0.77 nM.
